Experimental data as given in patent US20220010021A1 (Sanofi, published 2022).
Positions count from the first letter of the chain named.

T1: human beta-Klotho (KLB) (human, UniProt Q86Z14 53-997)
T1 construct: Bought protein; also called human KLB; β-Klotho
T1 sequence (looked up): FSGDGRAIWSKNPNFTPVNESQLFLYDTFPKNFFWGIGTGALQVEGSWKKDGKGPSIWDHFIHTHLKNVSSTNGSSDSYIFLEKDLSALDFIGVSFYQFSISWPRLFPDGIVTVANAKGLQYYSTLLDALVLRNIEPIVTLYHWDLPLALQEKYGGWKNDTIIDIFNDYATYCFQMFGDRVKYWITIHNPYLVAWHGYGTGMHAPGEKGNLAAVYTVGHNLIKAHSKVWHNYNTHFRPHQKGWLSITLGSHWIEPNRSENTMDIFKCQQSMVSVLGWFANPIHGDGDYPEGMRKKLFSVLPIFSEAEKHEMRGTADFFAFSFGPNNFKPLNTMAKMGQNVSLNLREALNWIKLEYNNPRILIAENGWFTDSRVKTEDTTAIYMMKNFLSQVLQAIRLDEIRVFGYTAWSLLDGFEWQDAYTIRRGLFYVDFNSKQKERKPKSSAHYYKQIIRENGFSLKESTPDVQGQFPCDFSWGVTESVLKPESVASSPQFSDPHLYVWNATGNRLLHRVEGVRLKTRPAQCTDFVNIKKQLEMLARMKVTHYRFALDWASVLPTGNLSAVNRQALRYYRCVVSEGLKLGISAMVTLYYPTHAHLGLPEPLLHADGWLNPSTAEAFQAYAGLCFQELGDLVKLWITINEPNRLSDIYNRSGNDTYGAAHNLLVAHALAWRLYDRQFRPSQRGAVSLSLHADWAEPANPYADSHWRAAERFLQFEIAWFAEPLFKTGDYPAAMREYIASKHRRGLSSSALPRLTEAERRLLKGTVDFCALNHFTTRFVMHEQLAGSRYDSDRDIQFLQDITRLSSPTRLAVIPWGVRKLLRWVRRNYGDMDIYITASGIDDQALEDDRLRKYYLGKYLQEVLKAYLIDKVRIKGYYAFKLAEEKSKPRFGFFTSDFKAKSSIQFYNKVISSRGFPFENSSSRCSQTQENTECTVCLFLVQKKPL

B1: 16H7 light chain variant S51T (antibody, IgG4, V domains shown)
VH: not shown
VL: SYVLTQPPSVSVAPGQTARITCGGNNIGSESVHWYQQKPGQAPVLVVYDDTDRPSGIPERFSGSNSGNTATLTISRVEAGDEADYYCQVWDGNSDHVVFGGGTKLTVLG
notes: IgG4 backbone
B2: 16H7 light chain variant S94F (antibody, IgG4, V domains shown)
VH: not shown
VL: B1 VL with T51S, S94F
notes: IgG4 backbone
B3: 16H7 light chain variant S94L (antibody, IgG4, V domains shown)
VH: not shown
VL: B1 VL with T51S, S94L
notes: IgG4 backbone
B4: 16H7 light chain variant V32I (antibody, IgG4, V domains shown)
VH: not shown
VL: B1 VL with V32I, T51S
notes: IgG4 backbone
B5: 16H7 light chain variant S94R (antibody, IgG4, V domains shown)
VH: not shown
VL: B1 VL with T51S, S94R
notes: IgG4 backbone
B6: 16H7 light chain variant V97C (antibody, IgG4, V domains shown)
VH: not shown
VL: B1 VL with T51S, V97C
notes: IgG4 backbone
B7: 16H7 light chain variant V32S (antibody, IgG4, V domains shown)
VH: not shown
VL: B1 VL with V32S, T51S
notes: IgG4 backbone
B8: 16H7 light chain variant V32C (antibody, IgG4, V domains shown)
VH: not shown
VL: B1 VL with V32C, T51S
notes: IgG4 backbone
B9: 16H7 light chain variant V32H (antibody, IgG4, V domains shown)
VH: not shown
VL: B1 VL with V32H, T51S
notes: IgG4 backbone
B10: 16H7 light chain variant S94V (antibody, IgG4, V domains shown)
VH: not shown
VL: B1 VL with T51S, S94V
notes: IgG4 backbone
B11: 16H7 light chain variant V32F (antibody, IgG4, V domains shown)
VH: not shown
VL: B1 VL with V32F, T51S
notes: IgG4 backbone
B12: 16H7 light chain variant S94I (antibody, IgG4, V domains shown)
VH: not shown
VL: B1 VL with T51S, S94I
notes: IgG4 backbone
B13: 16H7 light chain variant S94A (antibody, IgG4, V domains shown)
VH: not shown
VL: B1 VL with T51S, S94A
notes: IgG4 backbone
B14: 16H7 light chain variant S94E (antibody, IgG4, V domains shown)
VH: not shown
VL: B1 VL with T51S, S94E
notes: IgG4 backbone
B15: 16H7 light chain variant S94Y (antibody, IgG4, V domains shown)
VH: not shown
VL: B1 VL with T51S, S94Y
notes: IgG4 backbone
B16: 16H7 light chain variant S94T (antibody, IgG4, V domains shown)
VH: not shown
VL: B1 VL with T51S, S94T
notes: IgG4 backbone
B17: 16H7 light chain variant V32M (antibody, IgG4, V domains shown)
VH: not shown
VL: B1 VL with V32M, T51S
notes: IgG4 backbone
B18: 16H7 light chain variant S94M (antibody, IgG4, V domains shown)
VH: not shown
VL: B1 VL with T51S, S94M
notes: IgG4 backbone
B19: 16H7 light chain variant V32G (antibody, IgG4, V domains shown)
VH: not shown
VL: B1 VL with V32G, T51S
notes: IgG4 backbone
B20: 16H7 light chain variant S94N (antibody, IgG4, V domains shown)
VH: not shown
VL: B1 VL with T51S, S94N
notes: IgG4 backbone
B21: 16H7 light chain variant S94D (antibody, IgG4, V domains shown)
VH: not shown
VL: B1 VL with T51S, S94D
notes: IgG4 backbone
B22: 16H7 light chain variant V32L (antibody, IgG4, V domains shown)
VH: not shown
VL: B1 VL with V32L, T51S
notes: IgG4 backbone
B23: 16H7 light chain variant V32D (antibody, IgG4, V domains shown)
VH: not shown
VL: B1 VL with V32D, T51S
notes: IgG4 backbone
B24: 16H7 light chain variant V32N (antibody, IgG4, V domains shown)
VH: not shown
VL: B1 VL with V32N, T51S
notes: IgG4 backbone
B25: 16H7 light chain variant S94G (antibody, IgG4, V domains shown)
VH: not shown
VL: B1 VL with T51S, S94G
notes: IgG4 backbone
B26: 16H7 light chain variant V32Q (antibody, IgG4, V domains shown)
VH: not shown
VL: B1 VL with V32Q, T51S
notes: IgG4 backbone
B27: 16H7 light chain variant S94C (antibody, IgG4, V domains shown)
VH: not shown
VL: B1 VL with T51S, S94C
notes: IgG4 backbone
B28: 16H7 light chain variant V97F (antibody, IgG4, V domains shown)
VH: not shown
VL: B1 VL with T51S, V97F
notes: IgG4 backbone
B29: 16H7 light chain variant S94W (antibody, IgG4, V domains shown)
VH: not shown
VL: B1 VL with T51S, S94W
notes: IgG4 backbone
B30: 16H7 light chain variant V32A (antibody, IgG4, V domains shown)
VH: not shown
VL: B1 VL with V32A, T51S
notes: IgG4 backbone
B31: 16H7 light chain variant V97I (antibody, IgG4, V domains shown)
VH: not shown
VL: B1 VL with T51S, V97I
notes: IgG4 backbone
B32: 16H7 light chain variant V32W (antibody, IgG4, V domains shown)
VH: not shown
VL: B1 VL with V32W, T51S
notes: IgG4 backbone
B33: 16H7 light chain variant V32K (antibody, IgG4, V domains shown)
VH: not shown
VL: B1 VL with V32K, T51S
notes: IgG4 backbone
B34: 16H7 light chain variant V32T (antibody, IgG4, V domains shown)
VH: not shown
VL: B1 VL with V32T, T51S
notes: IgG4 backbone
B35: 16H7 light chain variant V32Y (antibody, IgG4, V domains shown)
VH: not shown
VL: B1 VL with V32Y, T51S
notes: IgG4 backbone

Assays:
[1] = biological target: T1, human beta-Klotho (KLB); assay: BLI off-rate screening (Octet), crude supernatant;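 further: supernatants tested at 25 µg/mL, dissociation from biosensors recorded in D-PBS with 0.1% BSA over 1800 s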
[2] = biological target: cell surface receptor composed of FGFR1c and co-receptor beta-Klotho (KLB) (human, UniProt P11362 22-822; Q86Z14 1-1044); assay: cell-based or functional assay; on Mean E max, Luciferase reporter gene assay: reference of the scale not given here
Chain of cell surface receptor composed of FGFR1c and co-receptor beta-Klotho (KLB) (P11362 22-822, chain 1 of 2): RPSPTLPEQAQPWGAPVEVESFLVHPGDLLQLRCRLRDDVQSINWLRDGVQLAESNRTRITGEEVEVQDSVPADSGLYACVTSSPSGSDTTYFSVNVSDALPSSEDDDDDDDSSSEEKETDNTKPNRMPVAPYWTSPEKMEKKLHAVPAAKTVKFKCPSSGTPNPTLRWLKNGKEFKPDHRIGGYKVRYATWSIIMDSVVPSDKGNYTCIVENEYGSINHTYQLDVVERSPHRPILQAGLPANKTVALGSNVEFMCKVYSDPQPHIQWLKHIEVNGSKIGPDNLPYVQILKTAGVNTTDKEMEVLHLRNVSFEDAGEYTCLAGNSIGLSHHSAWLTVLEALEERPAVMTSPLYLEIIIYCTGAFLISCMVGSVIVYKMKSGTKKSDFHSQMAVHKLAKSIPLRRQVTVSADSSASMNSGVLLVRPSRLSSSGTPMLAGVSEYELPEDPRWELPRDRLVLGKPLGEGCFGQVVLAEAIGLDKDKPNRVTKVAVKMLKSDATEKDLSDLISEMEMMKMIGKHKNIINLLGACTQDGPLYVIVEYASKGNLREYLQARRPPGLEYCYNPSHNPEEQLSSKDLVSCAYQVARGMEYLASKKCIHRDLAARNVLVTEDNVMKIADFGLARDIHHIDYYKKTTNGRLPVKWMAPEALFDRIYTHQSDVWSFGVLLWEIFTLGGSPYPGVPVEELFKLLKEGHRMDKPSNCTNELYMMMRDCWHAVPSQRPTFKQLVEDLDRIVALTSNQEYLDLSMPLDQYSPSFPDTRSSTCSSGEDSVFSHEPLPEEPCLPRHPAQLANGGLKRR
Chain of cell surface receptor composed of FGFR1c and co-receptor beta-Klotho (KLB) (Q86Z14 whole entry, chain 2 of 2): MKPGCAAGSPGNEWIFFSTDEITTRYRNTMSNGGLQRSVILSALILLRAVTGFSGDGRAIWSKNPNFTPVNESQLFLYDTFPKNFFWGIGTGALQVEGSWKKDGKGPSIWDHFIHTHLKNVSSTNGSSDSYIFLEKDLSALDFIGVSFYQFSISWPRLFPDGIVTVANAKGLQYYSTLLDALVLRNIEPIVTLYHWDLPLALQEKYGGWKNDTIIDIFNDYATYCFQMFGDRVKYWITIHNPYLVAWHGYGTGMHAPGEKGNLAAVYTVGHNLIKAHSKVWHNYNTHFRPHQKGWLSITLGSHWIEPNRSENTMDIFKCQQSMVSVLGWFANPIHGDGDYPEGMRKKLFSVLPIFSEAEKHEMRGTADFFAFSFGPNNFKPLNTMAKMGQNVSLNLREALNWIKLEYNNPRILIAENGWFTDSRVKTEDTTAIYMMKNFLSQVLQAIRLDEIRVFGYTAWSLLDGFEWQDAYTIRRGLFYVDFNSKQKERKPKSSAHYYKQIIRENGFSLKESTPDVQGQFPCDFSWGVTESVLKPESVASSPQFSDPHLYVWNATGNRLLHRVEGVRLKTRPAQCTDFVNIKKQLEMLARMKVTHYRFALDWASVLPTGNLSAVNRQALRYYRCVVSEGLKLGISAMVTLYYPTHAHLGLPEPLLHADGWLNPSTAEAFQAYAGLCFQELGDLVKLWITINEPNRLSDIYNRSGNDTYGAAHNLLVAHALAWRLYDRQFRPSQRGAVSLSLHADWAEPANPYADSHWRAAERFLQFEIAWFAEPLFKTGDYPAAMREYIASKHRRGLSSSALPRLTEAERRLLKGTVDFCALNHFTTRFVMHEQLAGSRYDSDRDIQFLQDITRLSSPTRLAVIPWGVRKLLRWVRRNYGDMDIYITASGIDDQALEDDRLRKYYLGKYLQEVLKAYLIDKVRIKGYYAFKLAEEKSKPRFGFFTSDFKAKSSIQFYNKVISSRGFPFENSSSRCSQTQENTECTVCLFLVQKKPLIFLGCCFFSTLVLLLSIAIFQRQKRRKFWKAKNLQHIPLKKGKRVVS

Binder | koff [1] | Mean E max, Luciferase reporter gene assay [2] | Mean EC50, Luciferase reporter gene assay [2]
B1 | 2.5e-05 s⁻¹ | 102% | 121 pM
B2 | 1e-07 s⁻¹ | 100% | 132 pM
B3 | 4.4e-05 s⁻¹ | 103% | 169 pM
B4 | 2e-05 s⁻¹ | 113% | 133 pM
B5 | 5.7e-05 s⁻¹ | 104% | 123 pM
B6 | 0.00023 s⁻¹ | 104% | 190 pM
B7 | 5.1e-05 s⁻¹ | 102% | 124 pM
B8 | 5.1e-06 s⁻¹ | 99% | 108 pM
B9 | 7.3e-05 s⁻¹ | 100% | 147 pM
B10 | 2.8e-05 s⁻¹ | 108% | 119 pM
B11 | 4.1e-05 s⁻¹ | 100% | 102 pM
B12 | 4.3e-05 s⁻¹ | 106% | 126 pM
B13 | 4.6e-05 s⁻¹ | 99% | 107 pM
B14 | 1.4e-05 s⁻¹ | 100% | 122 pM
B15 | 6.2e-05 s⁻¹ | 100% | 98 pM
B16 | 3.2e-05 s⁻¹ | 109% | 116 pM
B17 | 9.5e-05 s⁻¹ | 103% | 135 pM
B18 | 1.2e-05 s⁻¹ | 101% | 117 pM

Binder | koff [1] | Mean E max, Luciferase reporter gene assay [2] | Mean EC50, Luciferase reporter gene assay [2]
B19 | 6.5e-05 s⁻¹ | 103% | 240 pM
B20 | 3.3e-05 s⁻¹ | 103% | 133 pM
B21 | 3.4e-05 s⁻¹ | 103% | 122 pM
B22 | 4.9e-05 s⁻¹ | 104% | 126 pM
B23 | 0.00025 s⁻¹ | 92% | 141 pM
B24 | 4.4e-05 s⁻¹ | 104% | 123 pM
B25 | 6.8e-05 s⁻¹ | 100% | 146 pM
B26 | 0.00025 s⁻¹ | 91% | 166 pM
B27 | 1e-07 s⁻¹ | 99% | 138 pM
B28 | 2.1e-05 s⁻¹ | 45% | 3020 pM
B29 | 4.3e-05 s⁻¹ | 103% | 159 pM
B30 | 4.7e-05 s⁻¹ | 108% | 144 pM
B31 | 1.7e-05 s⁻¹ | 110% | 120 pM
B32 | 0.00023 s⁻¹ | 102% | 145 pM
B33 | 2.6e-05 s⁻¹ | 101% | 158 pM
B34 | 7e-05 s⁻¹ | 107% | 107 pM
B35 | 1.9e-05 s⁻¹ | 106% | 103 pM
